# Experimental data published in patent US20160075780A1 (NB HEALTH LABORATORY, published 2016).
# “And” between values parts separate entries of the source, which are not always exact repeats. Equal values may be shown once.
# T1: mouse EP1 with Cycle 3 GFP at the C-terminus, on 293FT cells (mouse, UniProt P35375 1-405)
# T1 construct: whole, on cells; also called mEP1; pcDNA-DEST47-mEP1; not shown: Cycle 3 GFP from the pcDNA-DEST47 vector
# T1 sequence (looked up): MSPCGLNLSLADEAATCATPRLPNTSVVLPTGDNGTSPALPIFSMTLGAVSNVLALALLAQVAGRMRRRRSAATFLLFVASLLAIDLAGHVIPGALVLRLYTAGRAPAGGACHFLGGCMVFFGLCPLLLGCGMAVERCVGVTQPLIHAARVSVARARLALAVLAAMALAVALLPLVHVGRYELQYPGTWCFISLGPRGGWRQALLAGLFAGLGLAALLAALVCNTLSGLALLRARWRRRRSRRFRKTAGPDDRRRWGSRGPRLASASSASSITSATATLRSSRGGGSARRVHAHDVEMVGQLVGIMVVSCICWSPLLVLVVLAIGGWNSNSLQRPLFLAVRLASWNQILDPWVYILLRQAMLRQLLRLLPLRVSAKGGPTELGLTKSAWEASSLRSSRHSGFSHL
# T2: mouse EP3 with Cycle 3 GFP at the C-terminus, on 293FT cells (mouse, UniProt P30557 1-365)
# T2 construct: whole, on cells; also called mEP3; pcDNA-DEST47-mEP3; not shown: Cycle 3 GFP from the pcDNA-DEST47 vector
# T2 sequence (looked up): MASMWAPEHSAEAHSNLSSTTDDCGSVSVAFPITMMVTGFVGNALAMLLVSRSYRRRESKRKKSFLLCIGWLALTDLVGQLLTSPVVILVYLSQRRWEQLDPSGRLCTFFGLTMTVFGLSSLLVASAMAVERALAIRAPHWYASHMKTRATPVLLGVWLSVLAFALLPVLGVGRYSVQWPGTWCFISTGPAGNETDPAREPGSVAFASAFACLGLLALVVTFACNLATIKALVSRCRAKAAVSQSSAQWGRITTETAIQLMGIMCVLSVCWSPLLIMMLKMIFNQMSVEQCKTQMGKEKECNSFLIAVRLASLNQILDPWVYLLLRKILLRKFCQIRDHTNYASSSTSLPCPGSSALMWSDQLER
# T3: human EP1 with Cycle 3 GFP at the C-terminus, on 293FT cells (human, UniProt P34995 1-402)
# T3 construct: whole, on cells; also called hEP1; pcDNA-DEST47-hEP1; not shown: Cycle 3 GFP from the pcDNA-DEST47 vector
# T3 sequence (looked up): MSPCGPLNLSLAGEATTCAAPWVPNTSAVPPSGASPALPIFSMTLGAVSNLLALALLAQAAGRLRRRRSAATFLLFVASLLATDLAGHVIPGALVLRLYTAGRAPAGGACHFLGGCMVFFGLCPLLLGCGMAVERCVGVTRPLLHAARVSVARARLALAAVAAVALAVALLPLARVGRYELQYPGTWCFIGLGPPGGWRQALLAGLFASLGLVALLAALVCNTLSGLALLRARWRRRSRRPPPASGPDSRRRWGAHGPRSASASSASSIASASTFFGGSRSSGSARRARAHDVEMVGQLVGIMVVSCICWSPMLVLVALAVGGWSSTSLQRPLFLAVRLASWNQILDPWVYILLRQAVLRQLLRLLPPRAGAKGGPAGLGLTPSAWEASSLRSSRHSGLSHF
# Legend:
# [1] = target: human EP4 with V5 and 6xHIS tags at the C-terminus, on the CHO cell line stably expressing human EP4 (human, UniProt P35408 1-488); assay: cell-based or functional assay
# Sequence of human EP4 with V5 and 6xHIS tags at the C-terminus, on the CHO cell line stably expressing human EP4 (P35408 whole entry): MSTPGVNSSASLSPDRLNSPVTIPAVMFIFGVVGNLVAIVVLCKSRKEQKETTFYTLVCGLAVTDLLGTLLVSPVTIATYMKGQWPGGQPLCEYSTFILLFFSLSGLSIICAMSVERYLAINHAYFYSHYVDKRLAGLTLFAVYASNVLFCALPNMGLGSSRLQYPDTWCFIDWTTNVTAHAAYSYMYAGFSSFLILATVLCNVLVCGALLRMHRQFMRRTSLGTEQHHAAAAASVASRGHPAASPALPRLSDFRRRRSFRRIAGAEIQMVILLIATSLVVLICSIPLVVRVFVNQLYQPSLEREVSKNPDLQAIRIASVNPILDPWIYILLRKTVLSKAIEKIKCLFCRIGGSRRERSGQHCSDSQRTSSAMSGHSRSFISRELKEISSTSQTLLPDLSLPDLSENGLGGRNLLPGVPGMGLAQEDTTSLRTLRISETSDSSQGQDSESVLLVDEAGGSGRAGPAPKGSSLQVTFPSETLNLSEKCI
# [2] = target: T1, mouse EP1 with Cycle 3 GFP at the …; assay: flow cytometry on 293FT cells transiently expressing EP-GFP
# Description: (§1) The pcDNA-DEST47-hEP1, pcDNA-DEST47-hEP2, pcDNA-DEST47-hEP3, pcDNA-DEST47-hEP4, pcDNA-DEST47-mEP1, pcDNA-DEST47-mEP2, pcDNA-DEST47-mEP3, and pcDNA-DEST47-mEP4 produced in (11) above (10 μg each) were each introduced into 293FT cells, using Lipofectamin 2000. On the following day, the cells were washed with HBSS, and were then removed from the cell culture dish using an enzyme-free cell dissociation buffer. The cells were then recovered by centrifugation. The thus recovered cells are referred to as 293FT cells transiently expressing EP.
# (§2) The binding test of the anti-EP4 antibody of the present invention and the 293FT transiently expressing EP cells was carried out with a flow cytometer according to the method described in (6) above. 293FT cells (5×10⁵ cells) that transiently expressed each of 8 types of PGE₂ receptor subtypes were used. As a primary antibody, 1 μg of the anti-EP4 antibody NBG016-mAb14 or NBG016-mAb21, or a mouse isotype control antibody (manufactured by BioRegend) was used. As a secondary antibody, a PE-labeled anti-mouse IgG antibody was used.
# [3] = target: T4, mouse EP2 with Cycle 3 GFP at the C-terminus, on 293FT cells (mouse, UniProt Q62053 1-362); assay: as above
# T4 construct: whole, on cells; also called mEP2; pcDNA-DEST47-mEP2; not shown: Cycle 3 GFP from the pcDNA-DEST47 vector
# T4 sequence (Q62053 whole entry): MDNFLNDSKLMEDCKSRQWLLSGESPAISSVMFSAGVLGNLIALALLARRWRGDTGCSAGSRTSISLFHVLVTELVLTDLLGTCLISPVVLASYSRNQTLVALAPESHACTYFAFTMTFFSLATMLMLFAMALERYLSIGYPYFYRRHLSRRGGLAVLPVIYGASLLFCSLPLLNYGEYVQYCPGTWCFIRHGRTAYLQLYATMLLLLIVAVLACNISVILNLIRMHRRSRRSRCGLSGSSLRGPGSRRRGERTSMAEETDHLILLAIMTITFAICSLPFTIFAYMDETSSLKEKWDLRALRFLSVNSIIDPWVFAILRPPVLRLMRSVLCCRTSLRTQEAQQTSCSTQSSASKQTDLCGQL
# Description: as §1, §2
# [4] = target: T2, mouse EP3 with Cycle 3 GFP at the …; assay: as above
# Description: as §1, §2
# [5] = target: T5, mouse EP4 with Cycle 3 GFP at the C-terminus, on 293FT cells (mouse, UniProt P32240 1-513); assay: as above
# T5 construct: whole, on cells; also called mEP4; pcDNA-DEST47-mEP4; not shown: Cycle 3 GFP from the pcDNA-DEST47 vector
# T5 sequence (P32240 whole entry): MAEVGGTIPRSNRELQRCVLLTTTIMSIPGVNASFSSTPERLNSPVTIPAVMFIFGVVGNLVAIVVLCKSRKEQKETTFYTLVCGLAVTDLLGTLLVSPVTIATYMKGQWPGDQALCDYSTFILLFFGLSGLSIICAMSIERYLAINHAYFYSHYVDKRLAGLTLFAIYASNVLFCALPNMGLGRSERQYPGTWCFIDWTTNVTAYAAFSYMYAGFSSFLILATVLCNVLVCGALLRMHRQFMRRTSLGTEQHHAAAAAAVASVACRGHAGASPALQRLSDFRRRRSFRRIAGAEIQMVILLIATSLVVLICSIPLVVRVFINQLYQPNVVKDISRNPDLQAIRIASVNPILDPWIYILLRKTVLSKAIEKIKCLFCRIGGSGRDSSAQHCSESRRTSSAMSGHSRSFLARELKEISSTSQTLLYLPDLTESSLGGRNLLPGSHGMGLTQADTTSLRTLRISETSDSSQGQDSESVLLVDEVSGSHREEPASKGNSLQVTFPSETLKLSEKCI
# Description: as §1, §2
# [6] = target: T3, human EP1 with Cycle 3 GFP at the …; assay: as above
# Description: as §1, §2
# [7] = target: T6, human EP2 with Cycle 3 GFP at the C-terminus, on 293FT cells (human, UniProt P43116 1-358); assay: as above
# T6 construct: whole, on cells; also called hEP2; pcDNA-DEST47-hEP2; not shown: Cycle 3 GFP from the pcDNA-DEST47 vector
# T6 sequence (P43116 whole entry): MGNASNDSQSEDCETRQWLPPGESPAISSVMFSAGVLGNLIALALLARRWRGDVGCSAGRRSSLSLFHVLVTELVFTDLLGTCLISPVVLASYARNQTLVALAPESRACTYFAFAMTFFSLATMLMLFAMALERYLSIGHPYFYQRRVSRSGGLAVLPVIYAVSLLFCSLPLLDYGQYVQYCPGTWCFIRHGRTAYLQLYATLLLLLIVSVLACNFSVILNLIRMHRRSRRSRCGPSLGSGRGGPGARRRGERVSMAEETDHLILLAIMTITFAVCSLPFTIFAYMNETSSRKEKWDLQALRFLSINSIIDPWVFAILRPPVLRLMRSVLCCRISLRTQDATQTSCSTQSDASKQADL
# Description: as §1, §2
Binder,IC50 of inhibition of PGE2-induced cAMP production in the CHO cell line stably expressing human EP4 (5×10^-11 M PGE2) [1],binding result [2],binding result [3],binding result [4],binding result [5],binding result [6],binding result [7],IC50 of inhibition of PGE2-induced cAMP production in the CHO cell line stably expressing human EP4 (1.5×10^-10 M PGE2) [1]
"NBG016-mAb14 (antibody, V domains shown) VH: EIQLQQSGPELVKPGASVKVSCKASGFPFSTYNIYWVIQSHGKRLEWIGYIDPYNGGTSYNQKFRGKATLTVDKSSSTAYMHLNRLTSEDSAVYYCARRWYTYDGDWFAYWGQGTLVTVSA VL: DIKMTQSPSSMYVSLGERVTITCKASQDINRYLSWFQQKPGKSPKTLIYRANRLLDGVPSRFSGSGSGLDYSLTISSLEYEDMGNYYCLQYDEFPFTFGSGTKLEIKR",0.15 µg/mL and ~1 nM,–,–,–,–,–,–,–
"NBG016-mAb21 (antibody, mouse IgG2a, Mouse IgG2a, kappa, purified from hybridoma supernatant; the recombinant antibody was expressed from the same genes; The entries may carry a signal peptide; also called recombinant antibody NBG016-mAb21; anti-EP4 antibody) heavy: EIQLQQSGPELVKPGASVKVSCKASGFPFSTYNIYWVIQSHGKSLEWIGYIDPYNGGTSYNQKFRGKATLTVDKSSSTAYMHLNSLTSEDSAVYYCARRWYTYDGDWFAYWGQGTLVTVSAAKTTAPSVYPLAPVCGDTTGSSVTLGCLVKGYFPEPVTLTWNSGSLSSGVHTFPAVLQSDLYTLSSSVTVTSSTWPSQSITCNVAHPASSTKVDKKIEPRGPTIKPCPPCKCPAPNLLGGPSVFIFPPKIKDVLMISLSPIVTCVVVDVSEDDPDVQISWFVNNVEVHTAQTQTHREDYNSTLRVVSALPIQHQDWMSGKEFKCKVNNKDLPAPIERTISKPKGSVRAPQVYVLPPPEEEMTKKQVTLTCMVTDFMPEDIYVEWTNNGKTELNYKNTEPVLDSDGSYFMYSKLRVEKKNWVERNSYSCSVVHEGLHNHHTTKSFSHSPGK light: DIKMTQSPSSMYVSLGERVTITCKASQDINRYLSWFQQKPGKSPKTLIYRANRMLDGVPSRFSGSGSGQDYSLTISSLEYEDMGNYYCLQYDEFPFTFGSGTKLEIKRADAAPTVSIFPPSSEQLTSGGASVVCFLNNFYPKDINVKWKIDGSERQNGVLNSWTDQDSKDSTYSMSSTLTLTKDEYERHNSYTCEATHKTSTSPIVKSFNRNEC",–,no binding (tested: 1 µg per 5×10^5 cells),no binding (tested: 1 µg per 5×10^5 cells),no binding (tested: 1 µg per 5×10^5 cells),no binding (tested: 1 µg per 5×10^5 cells),no binding (tested: 1 µg per 5×10^5 cells),no binding (tested: 1 µg per 5×10^5 cells),–
mouse IgG1 antibody NBG016-mAb21 (antibody) heavy: EIQLQQSGPELVKPGASVKVSCKASGFPFSTYNIYWVIQSHGKSLEWIGYIDPYNGGTSYNQKFRGKATLTVDKSSSTAYMHLNSLTSEDSAVYYCARRWYTYDGDWFAYWGQGTLVTVSSAKTTPPSVYPLAPGSAAQTNSMVTLGCLVKGYFPEPVTVTWNSGSLSSGVHTFPAVLQSDLYTLSSSVTVPSSPRPSETVTCNVAHPASSTKVDKKIVPRDCGCKPCICTVPEVSSVFIFPPKPKDVLTITLTPKVTCVVVDISKDDPEVQFSWFVDDVEVHTAQTQPREEQFNSTFRSVSELPIMHQDWLNGKEFKCRVNSAAFPAPIEKTISKTKGRPKAPQVYTIPPPKEQMAKDKVSLTCMITDFFPEDITVEWQWNGQPAENYKNTQPIMNTNGSYFVYSKLNVQKSNWEAGNTFTCSVLHEGLHNHHTEKSLSHSPGK light: DIKMTQSPSSMYVSLGERVTITCKASQDINRYLSWFQQKPGKSPKTLIYRANRMLDGVPSRFSGSGSGQDYSLTISSLEYEDMGNYYCLQYDEFPFTFGSGTKLEIKRADAAPTVSIFPPSSEQLTSGGASVVCFLNNFYPKDINVKWKIDGSERQNGVLNSWTDQDSKDSTYSMSSTLTLTKDEYERHNSYTCEATHKTSTSPIVKSFNRNEC,–,–,–,–,–,–,–,1.1 µg/mL and ~6.9 nM
"NBG016-mAb9 (antibody, mouse IgG1, kappa, V domains shown, Mouse IgG1, kappa, purified from hybridoma supernatant; the recombinant antibody (293FT supernatant) was expressed from the same genes; The entries may carry a signal peptide; also called recombinant antibody NBG016-mAb9) VH: QVQLKESGPGLVAPSQSLSITCTVSGFSLSSYTIHWVRQPPGRGLEWLGVIWAGGSTNYNSALMSRLRISKDTSRSQVFLKVNSLQTDDSAIYYCARDDFGYGFAYWGQGTLVTVSA VL: DVLMTQTPLSLPVSLGDQASISCRSSQSLVHTTGNTYLEWYLQKPGQSPKLLIYKISRRFSGVPDRFSGSGSGTDFTLRISRVEAADLGIYYCFQGSHIPPTFGAGTKLERKR",–,no binding,no binding,no binding,no binding,no binding,no binding,4.6 µg/mL and ~28.8 nM
